± gives the uncertainty stated by the source.
Experiment: self-splicing fitness, log relative to wild type (ln ratio); higher = more splicing; Tetrahymena group I intron in knt gene, E. coli kanamycin selection, DiMSum; sequences stand for … in CUCUCU…GGAGGGAAAAGUUAUCAGGCAUGCACCUGGUAGCUAGUCUUUAAACCAAUAGAUUGCAUCGGUUUAAAAGGCAAGACCGUCAAAUUGCGGGAAAGGGGUCAACAGCCGUUCAGUACCAAGUCUCAGGGGAAACUUUGAGAUGGCCUUGCAAAGGGUAUGGUAAUAAGCUGACGGACAUGGUCCUAACCACGCAGCCAAGUCCUAAGUCAACAGAUCUUCUGUUGAUAUGGAUGCAGUUCACAGACUAAAUGUCGGUCGGGGAAGAUGUAUUCUUCUCAUAAGAUAUAGUCGGACCUCUCCUUAAUGGGAGCUAGCGGAUGAAGUGAUGCAACACUGGAGCCGCUGGGAACUAAUUUGUAUGCGAAAGUAUAUUGAUUAGUUUUGGAGUACUCGUGGUCG
How it was run: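 Pooled colonies went to amplicon sequencing on an Illumina HiSeq 2500 after six replicate transformations. The plates were LB agar with 100 μg/mL carbenicillin, 50 μM IPTG and 0.2% rhamnose, with or without 25 μg/mL kanamycin, incubated overnight at 37°C or 30°C. The E. coli BL21(DE3) library had all eight P1ex-region intron nucleotides randomised, the intron placed in the knt kanamycin-resistance gene on pET-22b(+). DiMSum fitness is the error-weighted combination of replicate fold changes, kanamycin against none, normalised to wild type.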

| Sequence | self-splicing fitness (ln) (30 °C) | self-splicing fitness (ln) (37 °C) |
| --- | --- | --- |
| AGAAAGCAAUAUUACGGCGG | -0.593 ± 0.1 | -0.586 ± 0.14 |
| AGAAAGCAAUAUUACGGCUA | -0.324 ± 0.12 | 0.117 ± 0.13 |
| AGAAAGCAAUAUUACGGGGA | -3.05 ± 0.17 | -2.07 ± 0.17 |
| AGAAAGCAAUAUUACGGUCC | -0.555 ± 0.12 | 0.317 ± 0.16 |
| AGAAAGCAAUAUUACGUACA | -0.839 ± 0.075 | -0.379 ± 0.1 |
| AGAAAGCAAUAUUACGUACG | -1.26 ± 0.12 | 0.0255 ± 0.13 |
| AGAAAGCAAUAUUACGUCAU | -1.55 ± 0.079 | -0.954 ± 0.096 |
| AGAAAGCAAUAUUACGUGAA | -2.39 ± 0.13 | -1.96 ± 0.12 |
| AGAAAGCAAUAUUACGUGAU | -2.17 ± 0.069 | -1.25 ± 0.091 |
| AGAAAGCAAUAUUACGUUCC | -2.59 ± 0.43 | -1.23 ± 0.39 |
| AGAAAGCAAUAUUACGUUUA | -1.96 ± 0.13 | -1.04 ± 0.11 |
| AGAAAGCAAUAUUACGUUUC | -3.82 ± 0.15 | -2.09 ± 0.1 |
| AGACAGCAAUAUUACGAAAA |  | -1.44 ± 0.29 |
| AGACAGCAAUAUUACGAAAC | -3.76 ± 0.27 | -2.66 ± 0.34 |
| AGACAGCAAUAUUACGAAGC |  | -1.62 ± 0.28 |
| AGACAGCAAUAUUACGAAGG | -3.88 ± 0.18 | -2.75 ± 0.23 |
| AGACAGCAAUAUUACGAAUC |  | -3.41 ± 0.47 |
| AGACAGCAAUAUUACGAAUU | -2.74 ± 0.1 | -1.27 ± 0.11 |
| AGACAGCAAUAUUACGCAGC | -2.72 ± 0.23 | -2.19 ± 0.39 |
| AGACAGCAAUAUUACGCAUC | -2.73 ± 0.11 | -2.18 ± 0.16 |
| AGACAGCAAUAUUACGCAUU | -3.41 ± 0.12 | -1.45 ± 0.087 |
| AGACAGCAAUAUUACGCGAG | -1.22 ± 0.091 | -0.818 ± 0.094 |
| AGACAGCAAUAUUACGCGGA | -2.87 ± 0.14 | -1.58 ± 0.12 |
| AGACAGCAAUAUUACGCUUA | -0.813 ± 0.086 | -0.083 ± 0.12 |
| AGACAGCAAUAUUACGGAAG | -4.03 ± 0.3 | -1.94 ± 0.18 |

| Sequence | self-splicing fitness (ln) (30 °C) | self-splicing fitness (ln) (37 °C) |
| --- | --- | --- |
| AGACAGCAAUAUUACGGAGC | -3.94 ± 0.17 | -2.93 ± 0.24 |
| AGACAGCAAUAUUACGGCUA | -0.252 ± 0.08 | -0.286 ± 0.083 |
| AGACAGCAAUAUUACGGGCA | -1.18 ± 0.075 | -0.503 ± 0.079 |
| AGACAGCAAUAUUACGGUCC | -3.24 ± 0.27 | -1.68 ± 0.28 |
| AGACAGCAAUAUUACGGUUU | -3.25 ± 0.11 | -1.32 ± 0.082 |
| AGACAGCAAUAUUACGUACA | -0.745 ± 0.078 | -0.238 ± 0.097 |
| AGACAGCAAUAUUACGUACG | -1.22 ± 0.07 | -0.121 ± 0.094 |
| AGACAGCAAUAUUACGUCAA | -1.68 ± 0.1 | -1.35 ± 0.09 |
| AGACAGCAAUAUUACGUGCG | -0.833 ± 0.077 | -0.653 ± 0.083 |
| AGACAGCAAUAUUACGUGUG | -2 ± 0.063 | -1.44 ± 0.072 |
| AGAGAGCAAUAUUACGACGC | -2.54 ± 0.34 | -0.3 ± 0.28 |
| AGAGAGCAAUAUUACGAGGC | -2.09 ± 0.25 |  |
| AGAGAGCAAUAUUACGAUUC | -3.41 ± 0.35 | -1.24 ± 0.32 |
| AGAGAGCAAUAUUACGCAGG | -2.58 ± 0.13 | -3.21 ± 0.33 |
| AGAGAGCAAUAUUACGCGCU | -1.89 ± 0.35 |  |
| AGAGAGCAAUAUUACGCUGG | -3.07 ± 0.27 | -2.4 ± 0.32 |
| AGAGAGCAAUAUUACGGCCC | -1.82 ± 0.28 | -1.71 ± 0.48 |
| AGAGAGCAAUAUUACGGCUU | -1.65 ± 0.16 | -1.15 ± 0.25 |
| AGAGAGCAAUAUUACGGUCG | -3.33 ± 0.35 | -1.63 ± 0.35 |
| AGAGAGCAAUAUUACGUAGG |  | -2.16 ± 0.43 |
| AGAGAGCAAUAUUACGUGGG | -3.01 ± 0.17 | -2.71 ± 0.28 |
| AGAGAGCAAUAUUACGUGUG | -3.84 ± 0.16 | -3.07 ± 0.24 |
| AGAGAGCAAUAUUACGUUGG | -3.15 ± 0.14 | -2.76 ± 0.18 |
| AGAUAGCAAUAUUACGAACU | -0.83 ± 0.16 | 0.533 ± 0.17 |
| AGAUAGCAAUAUUACGACAC | -1.11 ± 0.12 | -0.486 ± 0.15 |

| Sequence | self-splicing fitness (ln) (30 °C) | self-splicing fitness (ln) (37 °C) |
| --- | --- | --- |
| AGAUAGCAAUAUUACGACUA | -1.03 ± 0.14 | -0.165 ± 0.13 |
| AGAUAGCAAUAUUACGAGAU | -3.02 ± 0.25 | -1.69 ± 0.27 |
| AGAUAGCAAUAUUACGAUGA | -1.5 ± 0.13 | -0.349 ± 0.097 |
| AGAUAGCAAUAUUACGCACU | -1.22 ± 0.1 | -0.664 ± 0.14 |
| AGAUAGCAAUAUUACGCAGA | -2.95 ± 0.18 | -2.32 ± 0.2 |
| AGAUAGCAAUAUUACGCGGA | -2.98 ± 0.13 | -0.482 ± 0.093 |
| AGAUAGCAAUAUUACGCGUU | -2.34 ± 0.14 | -0.0669 ± 0.13 |
| AGAUAGCAAUAUUACGCUAU | -3.58 ± 0.4 | -3.47 ± 0.24 |
| AGAUAGCAAUAUUACGGAGA | -1.91 ± 0.18 | -2.76 ± 0.38 |
| AGAUAGCAAUAUUACGGAGC | -3.24 ± 0.29 | -1.5 ± 0.28 |
| AGAUAGCAAUAUUACGGCCA | 0.117 ± 0.33 | -0.323 ± 0.26 |
| AGAUAGCAAUAUUACGGGCC | -1.68 ± 0.19 | -2.68 ± 0.36 |
| AGAUAGCAAUAUUACGGUAA | -1.79 ± 0.2 | -1.34 ± 0.19 |
| AGAUAGCAAUAUUACGGUAC | -3.91 ± 0.28 | -2.42 ± 0.22 |
| AGAUAGCAAUAUUACGGUCU | -2 ± 0.17 | -2.8 ± 0.22 |
| AGAUAGCAAUAUUACGUAUC | -2.64 ± 0.17 | -1.71 ± 0.18 |
| AGAUAGCAAUAUUACGUCCG | 0.235 ± 0.1 | -0.122 ± 0.11 |
| AGAUAGCAAUAUUACGUGUC | -3.36 ± 0.28 | -3.11 ± 0.27 |
| AGAUAGCAAUAUUACGUUAA | -2.88 ± 0.18 | -2.01 ± 0.18 |
| AGCAAGCAAUAUUACGAGUC | -3.5 ± 0.16 | -1.84 ± 0.14 |
| AGCAAGCAAUAUUACGAUAA | -2.16 ± 0.12 | 0.308 ± 0.11 |
| AGCAAGCAAUAUUACGAUCC | -1.8 ± 0.18 | 1.31 ± 0.25 |
| AGCAAGCAAUAUUACGCACA | -0.316 ± 0.082 | 0.365 ± 0.12 |
| AGCAAGCAAUAUUACGCAGC | -2.98 ± 0.27 | -2.1 ± 0.35 |
| AGCAAGCAAUAUUACGCAUA | -1.96 ± 0.14 | -1.06 ± 0.15 |

| Sequence | self-splicing fitness (ln) (30 °C) | self-splicing fitness (ln) (37 °C) |
| --- | --- | --- |
| AGCAAGCAAUAUUACGCGAC | -2.95 ± 0.25 | -2.35 ± 0.26 |
| AGCAAGCAAUAUUACGCGAU | -3.51 ± 0.37 | -0.149 ± 0.18 |
| AGCAAGCAAUAUUACGGACG | -0.404 ± 0.061 | -0.244 ± 0.086 |
| AGCAAGCAAUAUUACGGAUG | -2.27 ± 0.14 | -2.17 ± 0.17 |
| AGCAAGCAAUAUUACGGCUC | -4.6 ± 0.27 | -3.41 ± 0.4 |
| AGCAAGCAAUAUUACGGUCA | -0.46 ± 0.07 | 0.00074 ± 0.084 |
| AGCAAGCAAUAUUACGGUCC | -0.25 ± 0.07 | -0.276 ± 0.081 |
| AGCAAGCAAUAUUACGUAGG | -2.75 ± 0.1 | -2.1 ± 0.12 |
| AGCAAGCAAUAUUACGUCCG | -0.909 ± 0.12 | -0.462 ± 0.14 |
| AGCAAGCAAUAUUACGUUAA | -3.3 ± 0.17 | -1.68 ± 0.1 |
| AGCAAGCAAUAUUACGUUAC | -3.47 ± 0.23 | -2.38 ± 0.21 |
| AGCAAGCAAUAUUACGUUAG | -2.96 ± 0.17 | -2.24 ± 0.22 |
| AGCAAGCAAUAUUACGUUGG | -4.16 ± 0.14 | -3.18 ± 0.17 |
| AGCCAGCAAUAUUACGAAGA | -1.84 ± 0.26 | -1.46 ± 0.2 |
| AGCCAGCAAUAUUACGACCA | -1.61 ± 0.14 | -2.81 ± 0.3 |
| AGCCAGCAAUAUUACGAGGA | -3.35 ± 0.34 | -2.17 ± 0.27 |
| AGCCAGCAAUAUUACGAGGU | -3.51 ± 0.23 | -1.93 ± 0.21 |
| AGCCAGCAAUAUUACGAUCC | -2.27 ± 0.15 | -1.02 ± 0.19 |
| AGCCAGCAAUAUUACGCCCG | -1.94 ± 0.47 | -1.61 ± 0.36 |
| AGCCAGCAAUAUUACGCGAA | -0.797 ± 0.26 | -2.79 ± 0.38 |
| AGCCAGCAAUAUUACGCGCU | -3.07 ± 0.24 | -2.15 ± 0.25 |
| AGCCAGCAAUAUUACGCUCG | -1.78 ± 0.18 | -1.58 ± 0.18 |
